From patent US20130133089A1 (MEDICAL RESEARCH INFRASTRUCTURE AND HEALTH SERVICES FUND OF …, published 2013)
Where a chain is given by its changes, count along the chain named. Names may count otherwise. “And” between values parts separate entries of the source, which are not always exact repeats. Identical values can stand only once.

What was measured:
[1] = molecular target: T1, Recombinant human leptin binding domain (hLBD) (human, UniProt P48357 428-635, biotinylated with Sulfo-NHS-LC-Biotin in the yeast display assays; not labelled when immobilized in the plate binding assay); assay: competitive plate binding assay: immobilized hLBD, biotinylated mouse leptin as ligand, mutein as competitor
T1 construct: CRH2 sub-domain of the leptin receptor; Prepared in the applicants' laboratory; also called soluble human leptin receptor; CHR2
T1 sequence (looked up): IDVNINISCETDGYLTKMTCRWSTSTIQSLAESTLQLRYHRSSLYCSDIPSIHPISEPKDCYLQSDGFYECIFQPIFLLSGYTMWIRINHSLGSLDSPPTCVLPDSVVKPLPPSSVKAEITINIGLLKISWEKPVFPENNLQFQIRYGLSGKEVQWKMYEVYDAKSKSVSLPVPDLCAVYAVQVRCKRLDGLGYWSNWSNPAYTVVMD
Description: Biotinylated mouse leptin served as the ligand in all competitive experiments and the respective mouse leptin or mouse or human leptin antagonist muteins as competitors. The hLBD was used as the receptor source. Polystyrene 96-well microtiter plates were coated overnight at 4° C. with 100 μl of 40 μM hLBD in PBS pH 7.4. Wells were then washed one time with PBST (PBS containing 0.05 Tween 20) and blocked with PBS containing 3% skim milk for two hours in room temperature. All further incubations were carried out at room temperature. Wells were washed one time with PBST and incubated with different concentrations of un-labeled leptins (50 μl/well) for 30 min and then 50 μl of 62.5 μM of biotinylated mouse leptin were added to each well for another two hours. Then the wells were washed three times with PBST and incubated with 1:30,000 streptavidin-HRP in PBS containing 1 Tween 20 for one hour. Subsequently the wells were washed three times with PBST and the reaction was quantified in 450 nm by microplate reader ELISA Plate Reader ELx808—Bio-Tek Instrument Inc. (Winooski, Vt., USA) using TMB according to manufacturer's instructions.

[2] = molecular target: long form of human leptin receptor (hLEPR) on BAF/3 or H-49 (HEK-293) cells (human), P48357; assay: cell-based or functional assay
[3] = molecular target: T1, Recombinant human leptin binding domain …; assay: yeast display, flow cytometry titration with biotinylated hLBD (FIG. 4B)
Text: (§1) Those 7 mouse leptin mutants were selected for preparation of respectively mutated leptins expressed in E. coli.

[4] = molecular target: T1, Recombinant human leptin binding domain …; assay: yeast display, flow cytometry titration with biotinylated hLBD (FIG. 4A)
Text: as §1

Chain of long form of human leptin receptor (hLEPR) on BAF/3 or H-49 (HEK-293) cells (human), P48357 (P48357 22-1165): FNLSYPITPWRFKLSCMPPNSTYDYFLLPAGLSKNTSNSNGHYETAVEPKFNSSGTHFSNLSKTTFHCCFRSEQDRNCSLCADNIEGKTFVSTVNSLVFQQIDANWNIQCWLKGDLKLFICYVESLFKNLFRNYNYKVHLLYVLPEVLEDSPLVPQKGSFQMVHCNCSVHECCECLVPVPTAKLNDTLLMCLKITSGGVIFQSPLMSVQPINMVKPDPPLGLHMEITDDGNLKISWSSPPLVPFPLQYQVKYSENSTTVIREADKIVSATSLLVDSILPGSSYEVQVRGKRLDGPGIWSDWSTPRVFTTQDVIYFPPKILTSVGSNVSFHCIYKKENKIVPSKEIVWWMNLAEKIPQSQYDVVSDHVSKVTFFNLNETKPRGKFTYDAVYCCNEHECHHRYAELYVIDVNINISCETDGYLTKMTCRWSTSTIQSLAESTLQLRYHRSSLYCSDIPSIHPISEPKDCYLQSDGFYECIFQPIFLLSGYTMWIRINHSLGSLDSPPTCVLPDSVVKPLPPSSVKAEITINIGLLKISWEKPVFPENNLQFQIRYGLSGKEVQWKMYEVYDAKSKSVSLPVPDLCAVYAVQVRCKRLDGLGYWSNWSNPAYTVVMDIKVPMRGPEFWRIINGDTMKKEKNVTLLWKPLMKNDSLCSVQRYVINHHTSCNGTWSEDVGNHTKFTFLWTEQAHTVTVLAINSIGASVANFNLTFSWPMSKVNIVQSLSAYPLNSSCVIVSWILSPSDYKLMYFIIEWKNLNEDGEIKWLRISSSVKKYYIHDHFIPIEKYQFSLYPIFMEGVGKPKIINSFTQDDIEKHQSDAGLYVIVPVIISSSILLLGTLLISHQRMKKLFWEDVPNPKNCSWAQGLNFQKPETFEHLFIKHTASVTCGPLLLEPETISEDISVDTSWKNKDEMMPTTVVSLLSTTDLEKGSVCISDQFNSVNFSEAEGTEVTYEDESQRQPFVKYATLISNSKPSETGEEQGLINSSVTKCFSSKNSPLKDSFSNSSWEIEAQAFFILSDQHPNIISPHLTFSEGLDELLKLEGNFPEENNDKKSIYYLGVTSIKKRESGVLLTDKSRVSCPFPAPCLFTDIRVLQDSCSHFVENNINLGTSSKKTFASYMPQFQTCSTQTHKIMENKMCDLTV

B1: mouse leptin antagonist H12 (S97Y + L39A/D40A/F41A) (ligand)
chain: AVPIQKVQDDTKTLIKTIVTRINDISHTQSVSAKQRVTGAAAIPGLHPILSLSKMDQTLAVYQQVLTSLPSQNVLQIANDLENLRDLLHLLAFSKSCYLPQTSGLQKPESLDGVLEASLYSTEVVALSRLQGSLQDILQQLDVSPEC
notes: mature; also called H12 (antagonist)
fold increase in affinity as compared to the WT mouse leptin antagonist [1]: 1.4 fold

B2: pegylated mouse leptin antagonist (PEG-MLA), P41160 22-167 (ligand)
chain: B1 chain with Y98S
modifications: here or on the partner: pegylated (method previously described for MLA; 20 kDa PEG, site not restated here)
biological activity: fold reduction by pegylation of MLA [2]: 7 fold

B3: mouse leptin antagonist H12 (S97Y + L39A/D40A/F41A), P41160 22-167 (ligand)
chain: B1 chain
BAF/3 bioassay: fold increase in bioactivity as compared to the WT mouse leptin antagonist [2]: 0.8 fold | Luciferase bioassay: fold increase in bioactivity as compared to the WT mouse leptin antagonist [2]: 0.1 fold

B4: mouse leptin antagonist H19 (D23G, T37A, G44D + L39A/D40A/F41A), P41160 22-167 (ligand)
chain: B1 chain with D24G, T38A, G45D, Y98S
BAF/3 bioassay: fold increase in bioactivity as compared to the WT mouse leptin antagonist [2]: 3.5 fold | Luciferase bioassay: fold increase in bioactivity as compared to the WT mouse leptin antagonist [2]: 2.9 fold

B5: mouse leptin antagonist H15 (D23G, L68M, S97F, S132Y + L39A/D40A/F41A), P41160 22-167 (ligand)
chain: B1 chain with D24G, L69M, Y98F, S133Y
BAF/3 bioassay: fold increase in bioactivity as compared to the WT mouse leptin antagonist [2]: 4.8 fold | Luciferase bioassay: fold increase in bioactivity as compared to the WT mouse leptin antagonist [2]: 4.2 fold

B6: mouse leptin antagonist H22 (T12I + L39A/D40A/F41A), P41160 22-167 (ligand)
chain: B1 chain with T13I, Y98S
BAF/3 bioassay: fold increase in bioactivity as compared to the WT mouse leptin antagonist [2]: 2.4 fold | Luciferase bioassay: fold increase in bioactivity as compared to the WT mouse leptin antagonist [2]: 3.3 fold

B7: mouse leptin antagonist H16 (D23G, G112S + L39A/D40A/F41A), P41160 22-167 (ligand)
chain: B1 chain with D24G, Y98S, G113S
BAF/3 bioassay: fold increase in bioactivity as compared to the WT mouse leptin antagonist [2]: 3.3 fold | Luciferase bioassay: fold increase in bioactivity as compared to the WT mouse leptin antagonist [2]: 3.3 fold

B8: recombinant mouse leptin mutein H12 (S97Y), agonist, P41160 22-167 (ligand)
chain: B1 chain with A40L, A41D, A42F
BAF/3 bioassay: fold increase in bioactivity as compared to the WT mouse leptin [2]: 0.9 fold | Luciferase bioassay: fold increase in bioactivity as compared to the WT mouse leptin [2]: 0.7 fold

B9: recombinant mouse leptin mutein H15 (D23G, L68M, S97F, S132Y), agonist, P41160 22-167 (ligand)
chain: B1 chain with D24G, A40L, A41D, A42F, L69M, Y98F, S133Y
BAF/3 bioassay: fold increase in bioactivity as compared to the WT mouse leptin [2]: 0.5 fold | Luciferase bioassay: fold increase in bioactivity as compared to the WT mouse leptin [2]: 0.8 fold

B10: recombinant mouse leptin mutein H22 (T12I), agonist, P41160 22-167 (ligand)
chain: B1 chain with T13I, A40L, A41D, A42F, Y98S
BAF/3 bioassay: fold increase in bioactivity as compared to the WT mouse leptin [2]: 0.8 fold | Luciferase bioassay: fold increase in bioactivity as compared to the WT mouse leptin [2]: 0.7 fold

B11: mouse leptin antagonist H19 (D23G, T37A, G44D + L39A/D40A/F41A) (ligand)
chain: B1 chain with D24G, T38A, G45D, Y98S
notes: mature; also called H19 (antagonist)
fold increase in affinity as compared to the WT mouse leptin antagonist [1]: 6.1 fold

B12: mouse leptin antagonist H22 (T12I + L39A/D40A/F41A) (ligand)
chain: B1 chain with T13I, Y98S
notes: mature; also called H22 (antagonist)
fold increase in affinity as compared to the WT mouse leptin antagonist [1]: 11.2 fold

B13: mouse leptin antagonist H16 (D23G, G112S + L39A/D40A/F41A) (ligand)
chain: B1 chain with D24G, Y98S, G113S
notes: mature; also called H16 (antagonist)
fold increase in affinity as compared to the WT mouse leptin antagonist [1]: 11 fold

B14: mouse leptin antagonist H15 (D23G, L68M, S97F, S132Y + L39A/D40A/F41A) (ligand)
chain: B1 chain with D24G, L69M, Y98F, S133Y
notes: mature; also called H15 (antagonist)
fold increase in affinity as compared to the WT mouse leptin antagonist [1]: 12.4 fold

B15: superactive mouse leptin antagonist (SMLA), D23L/L39A/D40A/F41A mouse leptin, P41160 22-167 (ligand)
chain: VPIQKVQDDTKTLIKTLVTRINLISHTQSVSAKQRVTGAAAIPGLHPILSLSKMDQTLAVYQQVLTSLPSQNVLQIANDLENLRDLLHLLAFSKSCSLPQTSGLQKPESLDGVLEASLYSTEVVALSRLQGSLQDILQQVDLSPGC
BAF/3 bioassay: fold increase in bioactivity as compared to the WT mouse leptin antagonist [2]: 13.9 fold | Luciferase bioassay: fold increase in bioactivity as compared to the WT mouse leptin antagonist [2]: 13.4 fold | biological (inhibitory) activity, FIG. 12A: fold higher than that of HLA [2]: > 9 fold

B16: wild type mouse leptin displayed on yeast as Aga2p fusion (ligand, UniProt P41160 22-167, looked up, not shown: large carriers; small tags and cut ends)
chain: B15 chain with L17I, L23D, A39L, A40D, A41F, V140L, L142V, G145E
notes: mature; also called mlep wt; mlep, wt1
Kd [3]: 0.095 µM and 0.0957 µM | Kd [4]: 0.159 µM and 0.115 µM

B17: pegylated superactive mouse leptin antagonist (PEG-SMLA), P41160 22-167 (ligand)
chain: B15 chain
modifications: here or on the partner: mPEG-propionyl-ALD 20 kDa, preferentially on the N-terminal amino group (85% monopegylated, ~9% double pegylated)
biological activity in H-49 cells: fold reduction as compared to the non-pegylated SMLA [2]: 9 fold

B18: yeast-displayed mouse leptin clone H22 (T12I) (ligand, UniProt P41160 22-167, looked up, not shown: large carriers; small tags and cut ends)
chain: B15 chain with T12I, L17I, L23D, A39L, A40D, A41F, V140L, L142V, G145E
notes: mature
Bmax [3]: 719 MFI | Kd [3]: 0.0823 µM | Bmax [4]: 852 MFI | Kd [4]: 0.122 µM

B19: yeast-displayed mouse leptin clone H30 (D23H) (ligand, UniProt P41160 22-167, looked up, not shown: large carriers; small tags and cut ends)
chain: B15 chain with L17I, L23H, A39L, A40D, A41F, V140L, L142V, G145E
notes: mature
Bmax [3]: 741 MFI | Kd [3]: 0.0409 µM | Bmax [4]: 847 MFI | Kd [4]: 0.0595 µM

B20: yeast-displayed mouse leptin clone H19 (D23G, T37A, G44D) (ligand, UniProt P41160 22-167, looked up, not shown: large carriers; small tags and cut ends)
chain: B15 chain with L17I, L23G, T37A, A39L, A40D, A41F, G44D, V140L, L142V, G145E
notes: mature
Bmax [3]: 966 MFI | Kd [3]: 0.0684 µM | Bmax [4]: 968 MFI | Kd [4]: 0.104 µM

B21: yeast-displayed mouse leptin clone H17 (S109F) (ligand, UniProt P41160 22-167, looked up, not shown: large carriers; small tags and cut ends)
chain: B15 chain with L17I, L23D, A39L, A40D, A41F, S109F, V140L, L142V, G145E
notes: mature
Bmax [4]: 3600 MFI | Kd [4]: 0.62 µM

B22: yeast-displayed mouse leptin clone H7 (K11R, Q34R, T37A, F92C, S97Y, I136V) (ligand, UniProt P41160 22-167, looked up, not shown: large carriers; small tags and cut ends)
chain: VPIQKVQDDTRTLIKTIVTRINDISHTQSVSAKRRVAGLDFIPGLHPILSLSKMDQTLAVYQQVLTSLPSQNVLQIANDLENLRDLLHLLACSKSCYLPQTSGLQKPESLDGVLEASLYSTEVVALSRLQGSLQDVLQQLDVSPEC
notes: mature; also called H18; H27
Bmax [3]: 1140 MFI | Kd [3]: 0.0835 µM | Bmax [4]: 1590 MFI | Kd [4]: 0.126 µM

B23: yeast-displayed mouse leptin clone H12 (S97Y) (ligand, UniProt P41160 22-167, looked up, not shown: large carriers; small tags and cut ends)
chain: B22 chain with R11K, R34Q, A37T, C92F, V136I
notes: mature; also called H20; H24
Bmax [3]: 785 MFI | Kd [3]: 0.103 µM | Bmax [4]: 961 MFI | Kd [4]: 0.13 µM

B24: yeast-displayed mouse leptin clone L1 (D23N, Q34L, L114P) (ligand, UniProt P41160 22-167, looked up, not shown: large carriers; small tags and cut ends)
chain: B22 chain with R11K, D23N, R34L, A37T, C92F, Y97S, L114P, V136I
notes: mature
Bmax [3]: 1680 MFI | Kd [3]: 0.158 µM

B25: yeast-displayed mouse leptin clone H2 (A125T, S132Y) (ligand, UniProt P41160 22-167, looked up, not shown: large carriers; small tags and cut ends)
chain: B22 chain with R11K, R34Q, A37T, C92F, Y97S, A125T, S132Y, V136I
notes: mature
Bmax [3]: 2570 MFI | Kd [3]: 0.243 µM

B26: yeast-displayed mouse leptin clone H6 (D23G, V30D, Y119H) (ligand, UniProt P41160 22-167, looked up, not shown: large carriers; small tags and cut ends)
chain: B22 chain with R11K, D23G, V30D, R34Q, A37T, C92F, Y97S, Y119H, V136I
notes: mature
Bmax [3]: 1290 MFI | Kd [3]: 0.0991 µM

B27: yeast-displayed mouse leptin clone H3 (D23G, L68M, S97F, S132Y) (ligand, UniProt P41160 22-167, looked up, not shown: large carriers; small tags and cut ends)
chain: B22 chain with R11K, D23G, R34Q, A37T, L68M, C92F, Y97F, S132Y, V136I
notes: mature; also called H15; H4
Bmax [3]: 1350 MFI | Kd [3]: 0.0928 µM | Bmax [4]: 1450 MFI | Kd [4]: 0.0917 µM

B28: yeast-displayed mouse leptin clone H16 (D23G, G112S) (ligand, UniProt P41160 22-167, looked up, not shown: large carriers; small tags and cut ends)
chain: B22 chain with R11K, D23G, R34Q, A37T, C92F, Y97S, G112S, V136I
notes: mature
Bmax [3]: 550 MFI | Kd [3]: 0.044 µM

B29: human leptin super antagonist (SHLA), human leptin D23L/L39A/D40A/F41A, P41159 22-167 (ligand)
chain: VPIQKVQDDTKTLIKTIVTRINLISHTQSVSSKQKVTGAAAIPGLHPILTLSKMDQTLAVYQQILTSMPSQNVIQISNDLENLRDLLHVLAFSKSCHLPWASGLETLDSLGGVLEASGYSTEVVALSRLQGSLQDMLWQLDLSPGC
biological (inhibitory) activity, FIG. 12A: fold higher than that of HLA [2]: > 9 fold
